Laboratory results from the supplement of paper PMC7877785.
± gives the uncertainty stated by the source.

Experiment: self-splicing fitness, log relative to wild type (ln ratio); higher = more splicing; Tetrahymena group I intron in knt gene, E. coli kanamycin selection, DiMSum; sequences stand for … in CUCUCU…GGAGGGAAAAGUUAUCAGGCAUGCACCUGGUAGCUAGUCUUUAAACCAAUAGAUUGCAUCGGUUUAAAAGGCAAGACCGUCAAAUUGCGGGAAAGGGGUCAACAGCCGUUCAGUACCAAGUCUCAGGGGAAACUUUGAGAUGGCCUUGCAAAGGGUAUGGUAAUAAGCUGACGGACAUGGUCCUAACCACGCAGCCAAGUCCUAAGUCAACAGAUCUUCUGUUGAUAUGGAUGCAGUUCACAGACUAAAUGUCGGUCGGGGAAGAUGUAUUCUUCUCAUAAGAUAUAGUCGGACCUCUCCUUAAUGGGAGCUAGCGGAUGAAGUGAUGCAACACUGGAGCCGCUGGGAACUAAUUUGUAUGCGAAAGUAUAUUGAUUAGUUUUGGAGUACUCGUGGUCG
How it was run: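 Fitness was computed with DiMSum as the error-weighted combination of replicate fold changes, kanamycin versus none, each normalised to wild type. The library randomised all eight intron nucleotides of the P1ex region, with the intron placed in the knt kanamycin-resistance gene on pET-22b(+) in E. coli BL21(DE3). Six replicate transformations were grown overnight at 37°C or 30°C on LB agar with or without 25 μg/mL kanamycin, plus 100 μg/mL carbenicillin, 50 μM IPTG and 0.2% rhamnose. Pooled colonies were amplicon-sequenced on an Illumina HiSeq 2500.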

| Sequence | self-splicing fitness (ln) (30 °C) | self-splicing fitness (ln) (37 °C) |
| --- | --- | --- |
| UUAGAGCAAUAUUACGUUUU | -3.39 ± 0.32 | -2.3 ± 0.27 |
| UUAUAGCAAUAUUACGAAUC | -2.06 ± 0.4 | -1.85 ± 0.48 |
| UUAUAGCAAUAUUACGACUA | -0.12 ± 0.23 | -0.299 ± 0.2 |
| UUAUAGCAAUAUUACGAGGG | -3.47 ± 0.26 | -2.3 ± 0.27 |
| UUAUAGCAAUAUUACGAGUG | -1.06 ± 0.11 | -1.32 ± 0.2 |
| UUAUAGCAAUAUUACGAUUU | -1.23 ± 0.11 | -0.501 ± 0.13 |
| UUAUAGCAAUAUUACGCACU | -1.15 ± 0.16 | -0.214 ± 0.21 |
| UUAUAGCAAUAUUACGCCCG | -1.45 ± 0.36 |  |
| UUAUAGCAAUAUUACGCUGA | -2.17 ± 0.14 | -0.624 ± 0.13 |
| UUAUAGCAAUAUUACGGUCG | -0.705 ± 0.11 | 0.176 ± 0.15 |
| UUAUAGCAAUAUUACGGUUU | -1.66 ± 0.1 | -1.09 ± 0.12 |
| UUAUAGCAAUAUUACGUCGU | -3.1 ± 0.3 |  |
| UUAUAGCAAUAUUACGUUAG | -1.1 ± 0.12 | -0.717 ± 0.14 |
| UUAUAGCAAUAUUACGUUGU | -3.44 ± 0.27 | -2.38 ± 0.23 |
| UUCAAGCAAUAUUACGAAAC | -2.77 ± 0.31 | -2.89 ± 0.35 |
| UUCAAGCAAUAUUACGAGCU | -2.99 ± 0.23 | -1.33 ± 0.18 |
| UUCAAGCAAUAUUACGCAGG | -2.71 ± 0.14 | -1.78 ± 0.13 |
| UUCAAGCAAUAUUACGCGGA | -2.64 ± 0.16 | -2.09 ± 0.15 |
| UUCAAGCAAUAUUACGCGUC | -2.89 ± 0.15 | -0.969 ± 0.16 |
| UUCAAGCAAUAUUACGGAUC | -1.5 ± 0.25 | -2.84 ± 0.21 |
| UUCAAGCAAUAUUACGGCAA | 0.101 ± 0.1 | 0.0563 ± 0.11 |
| UUCAAGCAAUAUUACGGGCC |  | -2.94 ± 0.48 |
| UUCAAGCAAUAUUACGGGGC | -3.6 ± 0.27 | -2.8 ± 0.33 |
| UUCAAGCAAUAUUACGGGGG | -3.34 ± 0.26 | -0.739 ± 0.16 |
| UUCAAGCAAUAUUACGGGUG | -0.476 ± 0.045 | -0.593 ± 0.06 |

| Sequence | self-splicing fitness (ln) (30 °C) | self-splicing fitness (ln) (37 °C) |
| --- | --- | --- |
| UUCAAGCAAUAUUACGGUGU | -2.98 ± 0.18 | -2.49 ± 0.17 |
| UUCAAGCAAUAUUACGUACC |  | -1.69 ± 0.2 |
| UUCAAGCAAUAUUACGUAGC | -4.06 ± 0.26 | -2.3 ± 0.25 |
| UUCAAGCAAUAUUACGUAUA | -1.48 ± 0.1 | -0.136 ± 0.096 |
| UUCAAGCAAUAUUACGUCUC | -3.33 ± 0.26 | -1.74 ± 0.18 |
| UUCAAGCAAUAUUACGUGAA | -0.675 ± 0.089 | -0.479 ± 0.12 |
| UUCAAGCAAUAUUACGUUAG | -3.23 ± 0.12 | -1.32 ± 0.089 |
| UUCAAGCAAUAUUACGUUGU | -3.87 ± 0.19 | -1.34 ± 0.12 |
| UUCCAGCAAUAUUACGAAGA | -0.997 ± 0.11 | -0.671 ± 0.1 |
| UUCCAGCAAUAUUACGAAGC | -2.59 ± 0.32 | -1.92 ± 0.26 |
| UUCCAGCAAUAUUACGAAUA | -1.24 ± 0.15 | -0.772 ± 0.16 |
| UUCCAGCAAUAUUACGACCA | -0.177 ± 0.26 | -0.862 ± 0.23 |
| UUCCAGCAAUAUUACGACGA | -0.529 ± 0.12 | 0.216 ± 0.15 |
| UUCCAGCAAUAUUACGACUC | -3.04 ± 0.24 | -1.67 ± 0.19 |
| UUCCAGCAAUAUUACGAUCG | -2.6 ± 0.12 | -1.04 ± 0.14 |
| UUCCAGCAAUAUUACGCAAA | -1.42 ± 0.12 | -0.0764 ± 0.13 |
| UUCCAGCAAUAUUACGCAGU | -3.23 ± 0.17 | -2.79 ± 0.28 |
| UUCCAGCAAUAUUACGCGUG | -1.43 ± 0.069 | -0.516 ± 0.073 |
| UUCCAGCAAUAUUACGCUUC | -4.08 ± 0.24 | -2.58 ± 0.18 |
| UUCCAGCAAUAUUACGCUUG | -2.97 ± 0.21 | -1.94 ± 0.22 |
| UUCCAGCAAUAUUACGGAAG | -2.85 ± 0.19 | -2.16 ± 0.2 |
| UUCCAGCAAUAUUACGGACG | -0.4 ± 0.048 | 0.421 ± 0.077 |
| UUCCAGCAAUAUUACGGGCU | -4.67 ± 0.31 | -2.18 ± 0.17 |
| UUCCAGCAAUAUUACGGUAA | -0.236 ± 0.087 | -0.0663 ± 0.086 |
| UUCCAGCAAUAUUACGGUGC | -1.9 ± 0.16 | -1.23 ± 0.18 |

| Sequence | self-splicing fitness (ln) (30 °C) | self-splicing fitness (ln) (37 °C) |
| --- | --- | --- |
| UUCCAGCAAUAUUACGGUUC | -2.81 ± 0.16 | -1.99 ± 0.24 |
| UUCCAGCAAUAUUACGUAGA | -0.592 ± 0.076 | -0.502 ± 0.093 |
| UUCCAGCAAUAUUACGUAGU | -1.32 ± 0.093 | -1.57 ± 0.12 |
| UUCCAGCAAUAUUACGUAUU | -3.21 ± 0.18 | -1.7 ± 0.19 |
| UUCCAGCAAUAUUACGUCGA | -0.549 ± 0.099 | 0.355 ± 0.11 |
| UUCCAGCAAUAUUACGUCGU | -4.1 ± 0.19 | -1.85 ± 0.12 |
| UUCCAGCAAUAUUACGUGUA | -0.989 ± 0.058 | -0.572 ± 0.064 |
| UUCCAGCAAUAUUACGUGUG | -0.736 ± 0.04 | -0.164 ± 0.055 |
| UUCCAGCAAUAUUACGUGUU | -4.2 ± 0.25 | -2.48 ± 0.21 |
| UUCCAGCAAUAUUACGUUGA | -1.63 ± 0.078 | -1.17 ± 0.092 |
| UUCGAGCAAUAUUACGAAAG | -2.66 ± 0.36 |  |
| UUCGAGCAAUAUUACGAACA | -2.9 ± 0.28 | -1.73 ± 0.18 |
| UUCGAGCAAUAUUACGAAGU |  | -1.57 ± 0.32 |
| UUCGAGCAAUAUUACGAAUC |  | -2.97 ± 0.4 |
| UUCGAGCAAUAUUACGAGCU | -3.65 ± 0.43 | -2.44 ± 0.45 |
| UUCGAGCAAUAUUACGAUUU | -4.18 ± 0.28 | -2.19 ± 0.2 |
| UUCGAGCAAUAUUACGCAUU |  | -2.81 ± 0.43 |
| UUCGAGCAAUAUUACGCCUA | -1.67 ± 0.11 | -1.39 ± 0.097 |
| UUCGAGCAAUAUUACGCGCA | -0.15 ± 0.13 | -0.296 ± 0.17 |
| UUCGAGCAAUAUUACGCUAC |  | -0.0805 ± 0.34 |
| UUCGAGCAAUAUUACGCUGU | -3.54 ± 0.2 | -2.14 ± 0.21 |
| UUCGAGCAAUAUUACGGACU | -4.76 ± 0.38 | -2.63 ± 0.21 |
| UUCGAGCAAUAUUACGGAUU | -3.84 ± 0.23 | -3.1 ± 0.29 |
| UUCGAGCAAUAUUACGGCAA | -0.587 ± 0.099 | -0.26 ± 0.12 |
| UUCGAGCAAUAUUACGGCUG | -2.58 ± 0.23 | -1.81 ± 0.22 |

| Sequence | self-splicing fitness (ln) (30 °C) | self-splicing fitness (ln) (37 °C) |
| --- | --- | --- |
| UUCGAGCAAUAUUACGGCUU | -3.14 ± 0.18 | -2.65 ± 0.33 |
| UUCGAGCAAUAUUACGGGCU |  | -3.81 ± 0.42 |
| UUCGAGCAAUAUUACGGUAG | -3.12 ± 0.31 | -0.753 ± 0.14 |
| UUCGAGCAAUAUUACGGUUA | -1.19 ± 0.13 | -1.05 ± 0.1 |
| UUCUAGCAAUAUUACGACAA | -0.37 ± 0.12 | -0.0185 ± 0.17 |
| UUCUAGCAAUAUUACGACGA | -0.439 ± 0.12 | 0.731 ± 0.14 |
| UUCUAGCAAUAUUACGACGC | -2.76 ± 0.44 |  |
| UUCUAGCAAUAUUACGAGGG |  | -1.5 ± 0.17 |
| UUCUAGCAAUAUUACGAUUA | -0.696 ± 0.14 | 0.682 ± 0.12 |
| UUCUAGCAAUAUUACGCCUG | -1.79 ± 0.4 | -1.6 ± 0.49 |
| UUCUAGCAAUAUUACGCGAG | -2.97 ± 0.28 | -1.45 ± 0.21 |
| UUCUAGCAAUAUUACGCGGU | -2.74 ± 0.2 | -0.435 ± 0.24 |
| UUCUAGCAAUAUUACGGACU | -1.6 ± 0.17 | -1.16 ± 0.19 |
| UUCUAGCAAUAUUACGGAGC | -2.48 ± 0.44 |  |
| UUCUAGCAAUAUUACGGCAU | -1.81 ± 0.16 | -1.58 ± 0.19 |
| UUCUAGCAAUAUUACGUAUU | -3.61 ± 0.33 | -2.57 ± 0.25 |
| UUCUAGCAAUAUUACGUCAC |  | -2.28 ± 0.37 |
| UUCUAGCAAUAUUACGUGAA | -0.339 ± 0.066 | -0.148 ± 0.082 |
| UUCUAGCAAUAUUACGUGGA | -1.73 ± 0.31 | -1.15 ± 0.18 |
| UUCUAGCAAUAUUACGUUAU | -1.76 ± 0.26 | -2.14 ± 0.27 |
| UUGAAGCAAUAUUACGAAAA | -0.641 ± 0.12 | 0.066 ± 0.15 |
| UUGAAGCAAUAUUACGAAAU | -3.51 ± 0.13 | -0.963 ± 0.09 |
| UUGAAGCAAUAUUACGAUAU | -1.97 ± 0.075 | -1.03 ± 0.1 |
| UUGAAGCAAUAUUACGAUGG | -0.452 ± 0.07 | 0.232 ± 0.1 |
